Measured values as given in patent US7811569.

Assays:
[1] = molecular target: native MSP-3 antigen of Plasmodium falciparum clone 3D7 schizonts and merozoites (Plasmodium falciparum); experiment: indirect immunofluorescence on 3D7 mature schizont infected RBCs; antibody at 3 µg/ml in ADCI
[2] = molecular target: native MSP-3 antigen of Plasmodium falciparum clone 3D7 schizonts and merozoites (Plasmodium falciparum); experiment: cell-based or functional assay
[3] = molecular target: native MSP-3 antigen of Plasmodium falciparum clone 3D7 schizonts and merozoites (Plasmodium falciparum); experiment: indirect immunofluorescence on 3D7 mature schizont infected RBCs; antibody at 15 µg/ml in ADCI

IFAT in ADCI (endpoint titre of indirect immunofluorescence) [1]: 10 titre | SGI % (specific growth inhibitory index, ADCI with monocytes, 3 µg/ml) [2]: 23% | SGI % (specific growth inhibitory index, ADCI with monocytes, 15 µg/ml) [2]: 49% | IFAT in ADCI (endpoint titre of indirect immunofluorescence) [3]: 50 titre
B1: RAM1 IgG3 (antibody, V domains shown)
VH: QVQLVQSGGGVVQPGRSLRLSCAASGFTFSSYAMHWVRQAPGKGLEWVAVISYDGSNKYYADSVKGRFTISRDNSKNTLYLQMSSLRAEDTAVYYCVKGASSWSTGTLVTVSS
VL: DIVMMQSPATLSASVGDRVTITCRASQSISSWLAWYQQKPGKAPNLLIYKASSLESGVPSRFSGSGSGTEFTLTISSLQPDDFATYYCQQYKSFPYTFGQGTRLEIKR
